Measured values: patent publication US10941182 (Amgen, dated 2021)
One block for each binder: values may come before it. Starred links: 1 amine or outer side, 2 acyl side, 3 side chain; linkers in the order of their positions; H or OH if unused. Non-standard residues stand in square brackets, D forms with d. Primed or numbered codes have the meaning given here. *: point of attachment. dBip = N[C@H](Cc1ccc(-c2ccccc2)cc1)C(=O)O; Oic = O=C(O)[C@@H]1C[C@@H]2CCCC[C@@H]2N1; Phe(4-Cl) = N[C@@H](Cc1ccc(Cl)cc1)C(=O)O; Phe(4-I) = N[C@@H](Cc1ccc(I)cc1)C(=O)O; γGlu = O=C(O)[C@H](CCC(=O)[*:2])N[*:1]; NMeR = CN[C@@H](CCCNC(=N)N)C(=O)O; Tridecanoyl = CCCCCCCCCCCCC(=O)*; hArg = N=C(N)NCCCC[C@H](N)C(=O)O; Cha = N[C@@H](CC1CCCCC1)C(=O)O; NMeL = CN[C@@H](CC(C)C)C(=O)O; Nle = CCCC[C@H](N)C(=O)O; Pip′ = not defined here; AEEA = NCCOCCOCC(=O)O

Experiments:
rat APJ receptor = molecular target: T1, rat APJ receptor (rat, UniProt Q9JHG3 1-377); test: cell-based or functional assay
T1 sequence (looked up): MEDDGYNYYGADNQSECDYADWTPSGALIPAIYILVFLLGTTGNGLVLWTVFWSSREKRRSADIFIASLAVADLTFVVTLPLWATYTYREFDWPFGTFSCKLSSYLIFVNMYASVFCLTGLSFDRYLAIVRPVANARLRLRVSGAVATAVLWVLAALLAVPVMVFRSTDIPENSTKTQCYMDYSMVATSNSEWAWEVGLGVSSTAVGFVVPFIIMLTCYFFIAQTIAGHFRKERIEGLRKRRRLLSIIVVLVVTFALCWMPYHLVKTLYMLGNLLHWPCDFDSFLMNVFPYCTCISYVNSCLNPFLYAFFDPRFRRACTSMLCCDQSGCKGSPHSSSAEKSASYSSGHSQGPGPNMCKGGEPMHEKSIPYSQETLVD

human APJ receptor = molecular target: T2, human APJ receptor (human, UniProt P35414 1-380); test: cell-based or functional assay
T2 sequence (looked up): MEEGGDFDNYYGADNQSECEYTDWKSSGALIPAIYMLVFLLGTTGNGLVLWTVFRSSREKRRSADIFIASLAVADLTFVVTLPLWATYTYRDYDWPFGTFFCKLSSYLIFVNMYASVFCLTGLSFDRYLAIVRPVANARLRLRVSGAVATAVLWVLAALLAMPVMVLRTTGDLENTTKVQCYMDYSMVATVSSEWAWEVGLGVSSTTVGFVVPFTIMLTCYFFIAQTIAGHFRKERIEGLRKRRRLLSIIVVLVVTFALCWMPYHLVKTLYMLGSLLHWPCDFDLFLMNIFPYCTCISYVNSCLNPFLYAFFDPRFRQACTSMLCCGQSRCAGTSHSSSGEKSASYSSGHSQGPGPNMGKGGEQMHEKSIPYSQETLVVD

EC50 Rat APJ Receptor (GTPγS assay) (rat APJ receptor): 0.676 nM
EC50 Human APJ Receptor (GTPγS assay) (human APJ receptor): 0.345 nM
B4: Apelin polypeptide SEQ ID NO: 340 (peptide)
peptide: Tridecanoyl-[γGlu][AEEA][AEEA]RQRP[hArg][Cha]SA[Nle]G[Oic][Nle]P[Phe(4-Cl)]-OH
SMILES: CCCCCCCCCCCCC(=O)N[C@@H](CCC(=O)NCCOCCOCC(=O)NCCOCCOCC(=O)N[C@@H](CCCNC(=N)N)C(=O)N[C@@H](CCC(N)=O)C(=O)N[C@@H](CCCNC(=N)N)C(=O)N1CCC[C@H]1C(=O)N[C@@H](CCCCNC(=N)N)C(=O)N[C@@H](CC1CCCCC1)C(=O)N[C@@H](CO)C(=O)N[C@@H](C)C(=O)N[C@@H](CCCC)C(=O)NCC(=O)N1[C@H](C(=O)N[C@@H](CCCC)C(=O)N2CCC[C@H]2C(=O)N[C@@H](Cc2ccc(Cl)cc2)C(=O)O)C[C@@H]2CCCC[C@@H]21)C(=O)O

EC50 Rat APJ Receptor (GTPγS assay) (rat APJ receptor): 1.49 nM
EC50 Human APJ Receptor (GTPγS assay) (human APJ receptor): 0.331 nM
B6: Apelin polypeptide SEQ ID NO: 564 (peptide)
peptide: Tridecanoyl-[γGlu][AEEA][AEEA]RQ[Nle]P[hArg][Cha]SAKG[Pip′][Nle]P[Phe(4-Cl)]-OH

EC50 Rat APJ Receptor (GTPγS assay) (rat APJ receptor): 1.24 nM
EC50 Human APJ Receptor (GTPγS assay) (human APJ receptor): 1.4 nM
B9: Apelin polypeptide SEQ ID NO: 343 (peptide)
peptide: Tridecanoyl-[γGlu][AEEA][AEEA]RQ[Nle]P[hArg][Cha]SAKG[Oic][Nle]P[Phe(4-Cl)]-OH
SMILES: CCCCCCCCCCCCC(=O)N[C@@H](CCC(=O)NCCOCCOCC(=O)NCCOCCOCC(=O)N[C@@H](CCCNC(=N)N)C(=O)N[C@@H](CCC(N)=O)C(=O)N[C@@H](CCCC)C(=O)N1CCC[C@H]1C(=O)N[C@@H](CCCCNC(=N)N)C(=O)N[C@@H](CC1CCCCC1)C(=O)N[C@@H](CO)C(=O)N[C@@H](C)C(=O)N[C@@H](CCCCN)C(=O)NCC(=O)N1[C@H](C(=O)N[C@@H](CCCC)C(=O)N2CCC[C@H]2C(=O)N[C@@H](Cc2ccc(Cl)cc2)C(=O)O)C[C@@H]2CCCC[C@@H]21)C(=O)O

EC50 Rat APJ Receptor (GTPγS assay) (rat APJ receptor): 2.82 nM
EC50 Human APJ Receptor (GTPγS assay) (human APJ receptor): 1.02 nM
B10: Apelin polypeptide SEQ ID NO: 565 (peptide)
peptide: Tridecanoyl-[γGlu][AEEA][AEEA][dR]QRP[hArg][NMeL]SHKG[Pip′][Phe(4-I)]P[dBip]-OH

EC50 Rat APJ Receptor (GTPγS assay) (rat APJ receptor): 7.46 nM
EC50 Human APJ Receptor (GTPγS assay) (human APJ receptor): 4.92 nM
B12: Apelin polypeptide SEQ ID NO: 348 (peptide)
peptide: Tridecanoyl-[γGlu][AEEA][AEEA]RQ[Nle]P[hArg][Cha]AAKG[Oic][Nle]P[Phe(4-Cl)]-OH
SMILES: CCCCCCCCCCCCC(=O)N[C@@H](CCC(=O)NCCOCCOCC(=O)NCCOCCOCC(=O)N[C@@H](CCCNC(=N)N)C(=O)N[C@@H](CCC(N)=O)C(=O)N[C@@H](CCCC)C(=O)N1CCC[C@H]1C(=O)N[C@@H](CCCCNC(=N)N)C(=O)N[C@@H](CC1CCCCC1)C(=O)N[C@@H](C)C(=O)N[C@@H](C)C(=O)N[C@@H](CCCCN)C(=O)NCC(=O)N1[C@H](C(=O)N[C@@H](CCCC)C(=O)N2CCC[C@H]2C(=O)N[C@@H](Cc2ccc(Cl)cc2)C(=O)O)C[C@@H]2CCCC[C@@H]21)C(=O)O

More lines, now with the values behind:

B1: Apelin polypeptide SEQ ID NO: 344 (peptide)
peptide: Tridecanoyl-[γGlu][AEEA][AEEA]RQRP[Nle][Cha]AHKG[Oic][Nle]P[Phe(4-Cl)]-OH
SMILES: CCCCCCCCCCCCC(=O)N[C@@H](CCC(=O)NCCOCCOCC(=O)NCCOCCOCC(=O)N[C@@H](CCCNC(=N)N)C(=O)N[C@@H](CCC(N)=O)C(=O)N[C@@H](CCCNC(=N)N)C(=O)N1CCC[C@H]1C(=O)N[C@@H](CCCC)C(=O)N[C@@H](CC1CCCCC1)C(=O)N[C@@H](C)C(=O)N[C@@H](Cc1c[nH]cn1)C(=O)N[C@@H](CCCCN)C(=O)NCC(=O)N1[C@H](C(=O)N[C@@H](CCCC)C(=O)N2CCC[C@H]2C(=O)N[C@@H](Cc2ccc(Cl)cc2)C(=O)O)C[C@@H]2CCCC[C@@H]21)C(=O)O
EC50 Rat APJ Receptor (GTPγS assay) (rat APJ receptor): 5.58 nM
EC50 Human APJ Receptor (GTPγS assay) (human APJ receptor): 3.46 nM

B2: Apelin polypeptide SEQ ID NO: 336 (peptide)
peptide: Tridecanoyl-[γGlu][AEEA][AEEA]RQRP[hArg][Cha]SH[Nle]G[Oic][Nle]P[Phe(4-Cl)]-OH
SMILES: CCCCCCCCCCCCC(=O)N[C@@H](CCC(=O)NCCOCCOCC(=O)NCCOCCOCC(=O)N[C@@H](CCCNC(=N)N)C(=O)N[C@@H](CCC(N)=O)C(=O)N[C@@H](CCCNC(=N)N)C(=O)N1CCC[C@H]1C(=O)N[C@@H](CCCCNC(=N)N)C(=O)N[C@@H](CC1CCCCC1)C(=O)N[C@@H](CO)C(=O)N[C@@H](Cc1c[nH]cn1)C(=O)N[C@@H](CCCC)C(=O)NCC(=O)N1[C@H](C(=O)N[C@@H](CCCC)C(=O)N2CCC[C@H]2C(=O)N[C@@H](Cc2ccc(Cl)cc2)C(=O)O)C[C@@H]2CCCC[C@@H]21)C(=O)O
EC50 Rat APJ Receptor (GTPγS assay) (rat APJ receptor): 0.986 nM
EC50 Human APJ Receptor (GTPγS assay) (human APJ receptor): 0.714 nM

B3: Apelin polypeptide SEQ ID NO: 479 (peptide)
peptide: Tridecanoyl-[γGlu][AEEA][AEEA][dR]Q[hArg]P[NMeR][Cha]SHKG[Oic][Nle]P[Phe(4-Cl)]-OH
SMILES: CCCCCCCCCCCCC(=O)N[C@@H](CCC(=O)NCCOCCOCC(=O)NCCOCCOCC(=O)N[C@H](CCCNC(=N)N)C(=O)N[C@@H](CCC(N)=O)C(=O)N[C@@H](CCCCNC(=N)N)C(=O)N1CCC[C@H]1C(=O)N(C)[C@@H](CCCNC(=N)N)C(=O)N[C@@H](CC1CCCCC1)C(=O)N[C@@H](CO)C(=O)N[C@@H](Cc1c[nH]cn1)C(=O)N[C@@H](CCCCN)C(=O)NCC(=O)N1[C@H](C(=O)N[C@@H](CCCC)C(=O)N2CCC[C@H]2C(=O)N[C@@H](Cc2ccc(Cl)cc2)C(=O)O)C[C@@H]2CCCC[C@@H]21)C(=O)O
EC50 Rat APJ Receptor (GTPγS assay) (rat APJ receptor): 0.805 nM
EC50 Human APJ Receptor (GTPγS assay) (human APJ receptor): 0.409 nM

B5: Apelin polypeptide SEQ ID NO: 345 (peptide)
peptide: Tridecanoyl-[γGlu][AEEA][AEEA]RQRP[Nle][Cha]AAKG[Oic][Nle]P[Phe(4-Cl)]-OH
SMILES: CCCCCCCCCCCCC(=O)N[C@@H](CCC(=O)NCCOCCOCC(=O)NCCOCCOCC(=O)N[C@@H](CCCNC(=N)N)C(=O)N[C@@H](CCC(N)=O)C(=O)N[C@@H](CCCNC(=N)N)C(=O)N1CCC[C@H]1C(=O)N[C@@H](CCCC)C(=O)N[C@@H](CC1CCCCC1)C(=O)N[C@@H](C)C(=O)N[C@@H](C)C(=O)N[C@@H](CCCCN)C(=O)NCC(=O)N1[C@H](C(=O)N[C@@H](CCCC)C(=O)N2CCC[C@H]2C(=O)N[C@@H](Cc2ccc(Cl)cc2)C(=O)O)C[C@@H]2CCCC[C@@H]21)C(=O)O
EC50 Rat APJ Receptor (GTPγS assay) (rat APJ receptor): 5.79 nM
EC50 Human APJ Receptor (GTPγS assay) (human APJ receptor): 4.51 nM

B7: Apelin polypeptide SEQ ID NO: 480 (peptide)
peptide: Tridecanoyl-[γGlu][AEEA][AEEA][dR]Q[hArg]P[hArg][Cha]SHKG[Oic][Nle]P[Phe(4-Cl)]-OH
SMILES: CCCCCCCCCCCCC(=O)N[C@@H](CCC(=O)NCCOCCOCC(=O)NCCOCCOCC(=O)N[C@H](CCCNC(=N)N)C(=O)N[C@@H](CCC(N)=O)C(=O)N[C@@H](CCCCNC(=N)N)C(=O)N1CCC[C@H]1C(=O)N[C@@H](CCCCNC(=N)N)C(=O)N[C@@H](CC1CCCCC1)C(=O)N[C@@H](CO)C(=O)N[C@@H](Cc1c[nH]cn1)C(=O)N[C@@H](CCCCN)C(=O)NCC(=O)N1[C@H](C(=O)N[C@@H](CCCC)C(=O)N2CCC[C@H]2C(=O)N[C@@H](Cc2ccc(Cl)cc2)C(=O)O)C[C@@H]2CCCC[C@@H]21)C(=O)O
EC50 Rat APJ Receptor (GTPγS assay) (rat APJ receptor): 0.271 nM
EC50 Human APJ Receptor (GTPγS assay) (human APJ receptor): 0.0998 nM

B8: Apelin polypeptide SEQ ID NO: 339 (peptide)
peptide: Tridecanoyl-[γGlu][AEEA][AEEA]RQ[Nle]P[hArg][Cha]SHKG[Oic][Nle]P[Phe(4-Cl)]-OH
SMILES: CCCCCCCCCCCCC(=O)N[C@@H](CCC(=O)NCCOCCOCC(=O)NCCOCCOCC(=O)N[C@@H](CCCNC(=N)N)C(=O)N[C@@H](CCC(N)=O)C(=O)N[C@@H](CCCC)C(=O)N1CCC[C@H]1C(=O)N[C@@H](CCCCNC(=N)N)C(=O)N[C@@H](CC1CCCCC1)C(=O)N[C@@H](CO)C(=O)N[C@@H](Cc1c[nH]cn1)C(=O)N[C@@H](CCCCN)C(=O)NCC(=O)N1[C@H](C(=O)N[C@@H](CCCC)C(=O)N2CCC[C@H]2C(=O)N[C@@H](Cc2ccc(Cl)cc2)C(=O)O)C[C@@H]2CCCC[C@@H]21)C(=O)O
EC50 Rat APJ Receptor (GTPγS assay) (rat APJ receptor): 4.53 nM
EC50 Human APJ Receptor (GTPγS assay) (human APJ receptor): 2.55 nM

B11: Apelin polypeptide SEQ ID NO: 351 (peptide)
peptide: Tridecanoyl-[γGlu][AEEA][AEEA]RQRP[hArg][Cha]AA[Nle]G[Oic][Nle]P[Phe(4-Cl)]-OH
SMILES: CCCCCCCCCCCCC(=O)N[C@@H](CCC(=O)NCCOCCOCC(=O)NCCOCCOCC(=O)N[C@@H](CCCNC(=N)N)C(=O)N[C@@H](CCC(N)=O)C(=O)N[C@@H](CCCNC(=N)N)C(=O)N1CCC[C@H]1C(=O)N[C@@H](CCCCNC(=N)N)C(=O)N[C@@H](CC1CCCCC1)C(=O)N[C@@H](C)C(=O)N[C@@H](C)C(=O)N[C@@H](CCCC)C(=O)NCC(=O)N1[C@H](C(=O)N[C@@H](CCCC)C(=O)N2CCC[C@H]2C(=O)N[C@@H](Cc2ccc(Cl)cc2)C(=O)O)C[C@@H]2CCCC[C@@H]21)C(=O)O
EC50 Rat APJ Receptor (GTPγS assay) (rat APJ receptor): 1.8 nM
EC50 Human APJ Receptor (GTPγS assay) (human APJ receptor): 1.59 nM
